Experimental data reported in patent publication US7951572B2, “Construction of gold nanoparticle-based peptide chip, and assaying enzyme activity and inhibitor effect using secondary ion mass spectrometric analysis thereof” (Korea Advanced Institute of Science and Technology, priority 2006, dated 2011).

Legend:
PKA kinase = PKA kinase (Homo sapiens, UniProt P17612); assay: Quantitative analysis of inhibitory reaction against kinase on gold nanoparticle-peptide chip by secondary ion mass spectrometry; assay type: biochemical; conditions: ATP 10 μM, kinase 1 U, 30° C. for 2 hours, non-linear regression
Experimental: As one example for analyzing an inhibitory reaction against kinase activity, the effect of 4-cyano-3-methylisoquinoline (CMIQ, Sigma), an inhibitor against PKA kinase, was illustrated.
After silicon rubber having circular holes (3 mm diameter and 1 mm height) was attached to the surface of a slide glass (75×25 mm) consisting of a glass substrate, a gold nanoparticle-peptide chip was constructed in each of the holes according to the method of Examples 1-(3).
CMIQ was dissolved in a minimum amount of distilled water to prepare solutions having varying CMIP concentrations of 0.1 nM, 0.5 nM, 1 nM, 5 nM, 10 nM, 50 nM, 100 nM, 500 nM, 1 μM and 5 μM, and each of the solutions was mixed with kinase, was introduced into the gold nanoparticle-peptide chip formed in the holes and was allowed to react at 30° C. for 2 hours. In this reaction, the concentration of ATP was 10 μM, and the concentration of kinase used was 1 U. Since the amount of the peptide attached to the surface would generally be constant, the ATP and kinase concentrations were determined as concentrations at which the maximum enzyme reaction occurred.
The choice of the peaks before and after phosphorylation is not limited thereto, and peaks changed by phosphorylation as shown in FIG. 2 may all be applied. […]
More specifically, the values of Ap1 and Ap2 in the two reference samples, that is, the gold nanoparticle-peptide chip before treatment with kinase and the gold nanoparticle-peptide chip after phosphorylation, would be different depending on the intensity of ions. Thus, to correct this difference, percent phosphorylation was calculated according to the following equation 1: […]
In order to calculate percent inhibition, substitution from the percent phosphorylation value calculated in the equation 1 is made. […] More specifically, after the phosphorylation level at each concentration of the inhibitor is calculated, percent inhibition can be calculated according to the following equation 2: […]

[1] = test system: T1, Ac-LRRASLGGGGC (SEQ ID NO: 9)
T1 sequence: LRRASLGGGGC

[2] = test system: T2, Ac-IYAAPKKGGGGC (SEQ ID NO: 8)
T2 sequence: IYAAPKKGGGGC

Row | Compound | n (exponent of equation 3) (PKA kinase) | IC50 (PKA kinase; equation 3) | Imax (percent inhibition at which the maximum inhibitory effect of the inhibitor occurs) (PKA kinase; equation 3) | SIMS chemical imaging of the phosphorylated peptide ion on microarray spots [1] | change of the peptide mass peak (SIMS) on a chip carrying both peptides [1] | SIMS chemical imaging of the phosphorylated peptide ion on microarray spots (2 nM Abl, 100 uM ATP) [2] | change of the peptide mass peak (SIMS) on a chip carrying both peptides [2] | phosphorylation of the chip-bound peptide, seen as a mass change in secondary ion mass spectrometry [2] | SIMS chemical imaging of the phosphorylated peptide ion on microarray spots (50 nM PKA, 100 uM ATP) [1] | SIMS chemical imaging of the phosphorylated peptide ion on microarray spots [2]
1 | Cc1ncc2ccccc2c1C#N [CMIQ, 4-cyano-3-methylisoquinoline] | 0.9996 | ~0.087 µM | 100% |  |  |  |  |  |  | 
2 | Abl kinase (Calbiochem) |  |  |  | No cross-images of kinases against opposite peptides were observed | the AbI kinase and the PKA kinase did not influence the mass peaks of other peptides | kinase-treated spots (line 1 and 2) yielded strong ion mass images (i.e. [PAblH-SH-COOH+HPO3]+ or [PPKAH-SH-COOH+HPO3]+) | only the mass signals of peptides specific for the kinases were changed | the phosphorylation of the peptide occurred |  | 
3 | PKA kinase |  |  |  |  | only the mass signals of peptides specific for the kinases were changed |  | the AbI kinase and the PKA kinase did not influence the mass peaks of other peptides |  | kinase-treated spots (line 1 and 2) yielded strong ion mass images (i.e. [PAblH-SH-COOH+HPO3]+ or [PPKAH-SH-COOH+HPO3]+) | No cross-images of kinases against opposite peptides were observed
